In paper PMC10137048:

Biological target: amyloid beta (Aβ) peptide Aβ42

- stoichiometry N: < 4
Substance: amyloid beta (Aβ) peptide Aβ42
